From PMC9274004, “Deciphering the Molecular Interaction Between the Adhesion G Protein-Coupled Receptor ADGRV1 and its PDZ-Containing Regulator PDZD7” (Frontiers in Molecular Biosciences, 2022)

Tests used:
[1] = Degradation of PDZD7-GFP variants expressed in HeLa cells; conditions: western blot, compared to the wild-type
Method: HeLa cells were maintained in Dulbecco’s modified Eagle’s medium (DMEM) containing 10% fetal calf serum (FCS). PDZD7 constructs correspond to the full-length murine sequence in fusion with a N-terminal strep tag and a C-terminal GFP, wild-type or carrying G103R/G228R variants, cloned in a PMT3 vector. The ADGRV1 construct corresponds to the murine β subunit of the receptor (5884-6298) cloned in a pRK5 vector. Plasmids were transfected in separate HeLa cultures using 25 μg (PDZD7) and 10 μg (ADGRV1) of DNA per 10 cm dish using TurboFect™ Transfection Reagent (ThermoFisher Scientific) at 3 μl per μg of transfected DNA. Mixes were prepared in volumes of 1 ml/plate (in DMEM), vortexed and incubated up to 30 min at room temperature, cell media were renewed before transfection. After drop by drop addition of the transfection mix, cells were maintained at 37°C for 14 h for protein expression. […] Cells were counted, pelleted and resuspended at similar concentrations in PBS Tween 0.01%, Dodécyl-β-D-maltoside (DDM) 0.1% containing anti-proteases (buffer). […] Target proteins were detected using mouse α-GFP (LivingColors™ JL-8, Takara) and rabbit α-ADGRV1 (custom, raised against the cytoplasmic domain) antibodies (1/2000 in 5% milk TBST), as well as secondary α-mouse and α-rabbit IgG antibodies coupled to HRP (1/2000 in 5% milk TBST). […]

ADGRV1 β subunit = assay: Pull-down of ADGRV1 β subunit by full-length PDZD7-GFP from HeLa cell lysates; format: binding, murine; conditions: PDZD7-GFP bait, anti-GFP beads, 4°C 1 h, western blot, vs no bait
Method: HeLa cells were maintained in Dulbecco’s modified Eagle’s medium (DMEM) containing 10% fetal calf serum (FCS). PDZD7 constructs correspond to the full-length murine sequence in fusion with a N-terminal strep tag and a C-terminal GFP, wild-type or carrying G103R/G228R variants, cloned in a PMT3 vector. The ADGRV1 construct corresponds to the murine β subunit of the receptor (5884-6298) cloned in a pRK5 vector. Plasmids were transfected in separate HeLa cultures using 25 μg (PDZD7) and 10 μg (ADGRV1) of DNA per 10 cm dish using TurboFect™ Transfection Reagent (ThermoFisher Scientific) at 3 μl per μg of transfected DNA. Mixes were prepared in volumes of 1 ml/plate (in DMEM), vortexed and incubated up to 30 min at room temperature, cell media were renewed before transfection. After drop by drop addition of the transfection mix, cells were maintained at 37°C for 14 h for protein expression. Cells were dissociated using Gibco™ Trypsine-EDTA (0,05%), subsequently inactivated by addition of DMEM containing 10% FCS. Cells were counted, pelleted and resuspended at similar concentrations in PBS Tween 0.01%, Dodécyl-β-D-maltoside (DDM) 0.1% containing anti-proteases (buffer). Benzonase (Sigma) was added before sonication of the cells (40 mA amplitude, 10 pulses of 12 s with 18 s intervals, in ice). An identical volume of ADGRV1 β transfected cell lysate was mixed to either PDZD7 WT, G103R or G228R transfected cell lysates. PDZ proteins have different expression levels, meaning that different amounts of sample are needed to saturate the dynabeads with the PDZ proteins. Pull down experiments have been performed several times allowing us to estimate the yield of expression of each PDZ construct for a given amount of cells. […] Target proteins were detected using mouse α-GFP (LivingColors™ JL-8, Takara) and rabbit α-ADGRV1 (custom, raised against the cytoplasmic domain) antibodies (1/2000 in 5% milk TBST), as well as secondary α-mouse and α-rabbit IgG antibodies coupled to HRP (1/2000 in 5% milk TBST). […]

[2] = Aggregation / sample stability of purified PDZ2 constructs; format: physicochemical
Excerpt: The biochemical behavior of PDZD7 PDZ2 drastically differs from PDZ1, with or without its C-terminal extension. […] In order to further establish the accessible folding states of the PDZ2 extension, we used the same metadynamics approach as for PDZ1ext and probed its conformational energy landscape (Figure 3C).

B1: G103R: full-length murine PDZD7-GFP carrying G103R variant (protein, UniProt E9Q9W7 1-1021, looked up, variant G103R)
chain: MARGFTVGFDPLGLGELSSGSLSSVSSRGHLGSDSGSTATRYLLRKQQRLLNGPSRGIRASSPMGRVILINSPIEANSDESDIIHAVRVEKSPSGRLGFSVRRGSEHGLGIFVSKVEEGSSAERAGLCVGDKITEVNGLSLESTTMGSAVRLLTSSSCLHMMVRRMGRVPGIKFSKEKTTWVDVVNRRLVVEKCSSTPSDRSSEDGVRRIVHLYTTSDDFCLGFNIRGGKEFGLGIYVSKVDHGGLAEENGIKVGDQVLAANGVRFDDISHSQAVEVLKGQTHIMLTIKETGRYPAYKEMVSEYCWLDRLSNGVLQQLSPASESSSSVSSYASSAPCSSGSLPSDRMDVCLGPEEPTSHGPGWGRADTAMQTEPDLDSRVETWCSVRPTVILRDTAIRSDGPSSTRHLDSALSESPKTALLLALSRPRTPITRSQSHLTLWEEKKQRKKEKSGSSGEKGALQRSKTLMNLFFKGGRQGRPAGDGHREAWTLDSRSPTKVRPRLDLEKAGSVGPVQKFVTWRLRRDRERGRALLSARSGSPSGQAPTVNEQVQAWESRRPLIQDLARRLLTDDEVLAVTRHCSRYVHEGGVEDLVRPLLAILDRPTKLLLLRDIRSVVAPTDLGRFDSMVMPVELEAFEALKSRAVGPSALRPTRQDTPPKRHLITPVPDSRGGFYLLPVNSSEDEDGEIREKLGVLKVSLGASAPHHKGIPPLQDVPVDAFSLRRGACAPPPQPPPVAPRPPRPNWLLTEPLSREDTQQNQSQTPAQSCSRSRSRSRSRSHSRGQGKSPGRRRSPSPAPIATAATANGRYHRPRKARPLLPRLLDGQVAKVGARQGPLENGRIAEEAVGNVSTGALRTITLSKMKQSLGISISGGIESKVQPMVKIEKIFPGGAAFLCGDLQAGFELVAVDGESLEQVTHQRAVDTIRRAYRNKAREPMELVVRVPGPGLLPLASDLRVVKDQSLAPDCPSALGPVDDARILTQLPPPEARQLQQSLSSALKVPQSIPKLSPILKDPHDPS
modifications: full-length C-terminal GFP fusion
notes: full-length murine PDZD7-GFP carrying G103R variant
[1]
  degradation: higher tendency for degradation
ADGRV1 β subunit
  binding of ADGRV1 β subunit (pull-down): a decrease of ADGRV1 quantity bound to the beads was observed in comparison with wild-type PDZD7, similar to the experiment performed without bait

B2: G228R: full-length murine PDZD7-GFP carrying G228R variant (protein, UniProt E9Q9W7 1-1021, looked up, variant G228R)
chain: MARGFTVGFDPLGLGELSSGSLSSVSSRGHLGSDSGSTATRYLLRKQQRLLNGPSRGIRASSPMGRVILINSPIEANSDESDIIHAVRVEKSPSGRLGFSVRGGSEHGLGIFVSKVEEGSSAERAGLCVGDKITEVNGLSLESTTMGSAVRLLTSSSCLHMMVRRMGRVPGIKFSKEKTTWVDVVNRRLVVEKCSSTPSDRSSEDGVRRIVHLYTTSDDFCLGFNIRRGKEFGLGIYVSKVDHGGLAEENGIKVGDQVLAANGVRFDDISHSQAVEVLKGQTHIMLTIKETGRYPAYKEMVSEYCWLDRLSNGVLQQLSPASESSSSVSSYASSAPCSSGSLPSDRMDVCLGPEEPTSHGPGWGRADTAMQTEPDLDSRVETWCSVRPTVILRDTAIRSDGPSSTRHLDSALSESPKTALLLALSRPRTPITRSQSHLTLWEEKKQRKKEKSGSSGEKGALQRSKTLMNLFFKGGRQGRPAGDGHREAWTLDSRSPTKVRPRLDLEKAGSVGPVQKFVTWRLRRDRERGRALLSARSGSPSGQAPTVNEQVQAWESRRPLIQDLARRLLTDDEVLAVTRHCSRYVHEGGVEDLVRPLLAILDRPTKLLLLRDIRSVVAPTDLGRFDSMVMPVELEAFEALKSRAVGPSALRPTRQDTPPKRHLITPVPDSRGGFYLLPVNSSEDEDGEIREKLGVLKVSLGASAPHHKGIPPLQDVPVDAFSLRRGACAPPPQPPPVAPRPPRPNWLLTEPLSREDTQQNQSQTPAQSCSRSRSRSRSRSHSRGQGKSPGRRRSPSPAPIATAATANGRYHRPRKARPLLPRLLDGQVAKVGARQGPLENGRIAEEAVGNVSTGALRTITLSKMKQSLGISISGGIESKVQPMVKIEKIFPGGAAFLCGDLQAGFELVAVDGESLEQVTHQRAVDTIRRAYRNKAREPMELVVRVPGPGLLPLASDLRVVKDQSLAPDCPSALGPVDDARILTQLPPPEARQLQQSLSSALKVPQSIPKLSPILKDPHDPS
modifications: full-length C-terminal GFP fusion
notes: full-length murine PDZD7-GFP carrying G228R variant
[1]
  degradation: higher tendency for degradation
ADGRV1 β subunit
  binding of ADGRV1 β subunit (pull-down): a decrease of ADGRV1 quantity bound to the beads was observed in comparison with wild-type PDZD7, similar to the experiment performed without bait

B3: PDZ2: second PDZ of mouse PDZD7 (G206 to G292) (protein)
chain: GVRRIVHLYTTSDDFCLGFNIRGGKEFGLGIYVSKVDHGGLAEENGIKVGDQVLAANGVRFDDISHSQAVEVLKGQTHIMLTIKETG
modifications: left off: GST, N-terminal, cleaved
[2]; 15N-labelled PDZ2 constructs, NMR
  sample stability: stable for a few hours only
[2]; at temperatures higher than 15 °C, despite extensive screening of buffer conditions
  aggregation: Rapid aggregation

B4: PDZ2 G228R: PDZD7 PDZ2 carrying deafness-causing mutation G228R (protein, UniProt E9Q9W7 206-292, looked up, variant G228R)
chain: GVRRIVHLYTTSDDFCLGFNIRRGKEFGLGIYVSKVDHGGLAEENGIKVGDQVLAANGVRFDDISHSQAVEVLKGQTHIMLTIKETG
[2]; during biophysical experiments, low yield
  aggregation: severe aggregation
